Starred links: 1 amine or outer side, 2 acyl side, 3 side chain; linkers in the order of their positions; H or OH if unused. Non-standard residues stand in square brackets, D forms with d. Groups on a side chain read outwards from the residue. No end group written: not given here. *: point of attachment. C18 diacid = O=C(O)CCCCCCCCCCCCCCCCC(=O)*; γGlu = O=C(O)[C@H](CCC(=O)[*:2])N[*:1]; AEEA = NCCOCCOCC(=O)O; Aib = CC(C)(N)C(=O)O
B1: SEQ ID NO: 39 (peptide)
peptide: IVLSLDVPIKLK([AEEA-AEEA-γGlu-C18 diacid])QILLEQERQRKERQQAETNAQILAQV-NH2
modifications: N-terminus assumed
SMILES: CC[C@H](C)[C@H](N)C(=O)N[C@H](C(=O)N[C@@H](CC(C)C)C(=O)N[C@@H](CO)C(=O)N[C@@H](CC(C)C)C(=O)N[C@@H](CC(=O)O)C(=O)N[C@H](C(=O)N1CCC[C@H]1C(=O)N[C@H](C(=O)N[C@@H](CCCCN)C(=O)N[C@@H](CC(C)C)C(=O)N[C@@H](CCCCNC(=O)COCCOCCNC(=O)COCCOCCNC(=O)CC[C@H](NC(=O)CCCCCCCCCCCCCCCCC(=O)O)C(=O)O)C(=O)N[C@@H](CCC(N)=O)C(=O)N[C@H](C(=O)N[C@@H](CC(C)C)C(=O)N[C@@H](CC(C)C)C(=O)N[C@@H](CCC(=O)O)C(=O)N[C@@H](CCC(N)=O)C(=O)N[C@@H](CCC(=O)O)C(=O)N[C@@H](CCCNC(=N)N)C(=O)N[C@@H](CCC(N)=O)C(=O)N[C@@H](CCCNC(=N)N)C(=O)N[C@@H](CCCCN)C(=O)N[C@@H](CCC(=O)O)C(=O)N[C@@H](CCCNC(=N)N)C(=O)N[C@@H](CCC(N)=O)C(=O)N[C@@H](CCC(N)=O)C(=O)N[C@@H](C)C(=O)N[C@@H](CCC(=O)O)C(=O)N[C@H](C(=O)N[C@@H](CC(N)=O)C(=O)N[C@@H](C)C(=O)N[C@@H](CCC(N)=O)C(=O)N[C@H](C(=O)N[C@@H](CC(C)C)C(=O)N[C@@H](C)C(=O)N[C@@H](CCC(N)=O)C(=O)N[C@H](C(N)=O)C(C)C)[C@@H](C)CC)[C@@H](C)O)[C@@H](C)CC)[C@@H](C)CC)C(C)C)C(C)C
B2: SEQ ID NO: 38 (peptide)
peptide: IVLSLDVPTKLK([AEEA-AEEA-γGlu-C18 diacid])QKLLKQERQR[Aib]ERQQAETNKRILERV-NH2
modifications: N-terminus assumed
SMILES: CC[C@H](C)[C@H](N)C(=O)N[C@H](C(=O)N[C@@H](CC(C)C)C(=O)N[C@@H](CO)C(=O)N[C@@H](CC(C)C)C(=O)N[C@@H](CC(=O)O)C(=O)N[C@H](C(=O)N1CCC[C@H]1C(=O)N[C@H](C(=O)N[C@@H](CCCCN)C(=O)N[C@@H](CC(C)C)C(=O)N[C@@H](CCCCNC(=O)COCCOCCNC(=O)COCCOCCNC(=O)CC[C@H](NC(=O)CCCCCCCCCCCCCCCCC(=O)O)C(=O)O)C(=O)N[C@@H](CCC(N)=O)C(=O)N[C@@H](CCCCN)C(=O)N[C@@H](CC(C)C)C(=O)N[C@@H](CC(C)C)C(=O)N[C@@H](CCCCN)C(=O)N[C@@H](CCC(N)=O)C(=O)N[C@@H](CCC(=O)O)C(=O)N[C@@H](CCCNC(=N)N)C(=O)N[C@@H](CCC(N)=O)C(=O)N[C@@H](CCCNC(=N)N)C(=O)NC(C)(C)C(=O)N[C@@H](CCC(=O)O)C(=O)N[C@@H](CCCNC(=N)N)C(=O)N[C@@H](CCC(N)=O)C(=O)N[C@@H](CCC(N)=O)C(=O)N[C@@H](C)C(=O)N[C@@H](CCC(=O)O)C(=O)N[C@H](C(=O)N[C@@H](CC(N)=O)C(=O)N[C@@H](CCCCN)C(=O)N[C@@H](CCCNC(=N)N)C(=O)N[C@H](C(=O)N[C@@H](CC(C)C)C(=O)N[C@@H](CCC(=O)O)C(=O)N[C@@H](CCCNC(=N)N)C(=O)N[C@H](C(N)=O)C(C)C)[C@@H](C)CC)[C@@H](C)O)[C@@H](C)O)C(C)C)C(C)C

Molecular target: human corticotropin-releasing factor 2α (CRF2 α receptor) (human), Q13324
Test: cell-based or functional assay

Sequence of human corticotropin-releasing factor 2α (CRF2 α receptor) (human), Q13324 (Q13324 20-411): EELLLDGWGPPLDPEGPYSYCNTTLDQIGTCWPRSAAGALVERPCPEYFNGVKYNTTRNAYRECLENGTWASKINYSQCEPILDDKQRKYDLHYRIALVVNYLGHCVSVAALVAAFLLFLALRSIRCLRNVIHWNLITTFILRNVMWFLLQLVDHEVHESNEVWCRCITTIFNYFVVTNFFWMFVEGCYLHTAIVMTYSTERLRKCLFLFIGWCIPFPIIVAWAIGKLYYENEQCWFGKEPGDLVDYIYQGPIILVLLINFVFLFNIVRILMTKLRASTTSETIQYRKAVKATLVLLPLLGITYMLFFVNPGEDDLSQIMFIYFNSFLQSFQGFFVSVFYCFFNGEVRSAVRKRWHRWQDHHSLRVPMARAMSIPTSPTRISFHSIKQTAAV

Row | Binder | EC50 [nM], 0% HSA
1 | B1 | 0.65 nM
2 | B2 | 20.9 nM
